Data set [1] has as its target NS1B C-terminal domain (residues 141-281 of NS1B, influenza B/Lee/1940) (influenza B virus (B/lee/1940)) (UniProt P03502). As to the kind of experiment: NMR rotational correlation time.
For data set [2] the target is unchanged. As to the kind of experiment: NMR titration.
In the next data set the target is T1, NS1B CTD wt (Influenza B virus (B/Lee/1940), UniProt P03502 141-281).
T1 sequence: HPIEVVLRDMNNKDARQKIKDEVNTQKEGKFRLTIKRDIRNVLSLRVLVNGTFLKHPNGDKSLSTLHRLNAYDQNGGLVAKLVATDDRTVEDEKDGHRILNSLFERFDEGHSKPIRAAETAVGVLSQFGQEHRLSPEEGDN
As to the kind of experiment: fluorescence polarization.

A further data set addresses NS1A CTD (Influenza A virus (Udorn), UniProt P03495 85-215). As to the kind of experiment: fluorescence polarization.

This note sets out measurements from PMC5014651.

Sequence of NS1A CTD (P03495 85-215): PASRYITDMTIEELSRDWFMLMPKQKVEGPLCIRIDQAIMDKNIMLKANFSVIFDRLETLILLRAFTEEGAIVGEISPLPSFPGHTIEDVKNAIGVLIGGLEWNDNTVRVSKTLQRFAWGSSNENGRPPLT

In data set [1], “NS1B C-terminal domain (residues 141-281 of NS1B, influenza B/Lee/1940) (from UniProt P03502 141-281) (domain or fragment)” yielded a Kd of 700 µM and a stoichiometry N of 2. Further, the dissociation constant Kd in data set [2] came out at 600 µM.

B1: 16-bp dsRNA (dsRNA)
RNA 1: CGCCUGUAGAGGAUGG
RNA 2: CCAUCCUCUACAGGCG
The molecule B1 had a Kd with NS1B CTD wt of 0.13 ± 0.03 µM. Moreover, in the data set with NS1A CTD, the binding result was “no binding”.

As for CGCCUGUAGAGGAUGG (ssRNA) [16 minus ssRNA (antisense)], in the data set with NS1B CTD wt, the Kd is 0.58 ± 0.05 µM.
